In one test the target is HLA-B*07:0 (Homo sapiens, UniProt P01889). As to the kind of experiment: MHC binding assay, UV-ligand exchange ELISA. To be noted: peptide exchange yield, binding to HLA-B*07:0. From the text:
(§1) Candidate peptides for T cell based therapies according to the present invention were further tested for their MHC binding capacity (affinity). The individual peptide-MHC complexes were produced by UV-ligand exchange, where a UV-sensitive peptide is cleaved upon UV-irradiation and exchanged with the peptide of interest as analyzed. Only peptide candidates that can effectively bind and stabilize the peptide-receptive MHC molecules prevent dissociation of the MHC complexes. To determine the yield of the exchange reaction, an ELISA was performed based on the detection of the light chain (β2m) of stabilized MHC complexes. The assay was performed as generally described in Rodenko et al. (Rodenko et al., 2006).
(§2) 96 well MAXISorp plates (NUNC) were coated over night with 2 μg/ml streptavidin in PBS at room temperature, washed 4× and blocked for 1 h at 37° C. in 2% BSA containing blocking buffer. Refolded HLA-A*02:01/MLA-001 monomers served as standards, covering the range of 15-500 ng/ml. Peptide-MHC monomers of the UV-exchange reaction were diluted 100-fold in blocking buffer. Samples were incubated for 1 h at 37° C., washed four times, incubated with 2 μg/ml HRP conjugated anti-82m for 1 h at 37° C., washed again and detected with TMB solution that is stopped with […]. Absorption was measured at 450 nm. Candidate peptides that show a high exchange yield (preferably higher than 50%, most preferred higher than 75%) are generally preferred for a generation and production of antibodies or fragments thereof, and/or T cell receptors or fragments thereof, as they show sufficient avidity to the MHC molecules and prevent dissociation of the MHC complexes.
(In general: An ELISA detects its analyte on a solid surface through an enzyme-linked reagent.)

For test [1], the system named is HLA-A*01:01, HLA-A*02:01, HLA-A*03:01, HLA-A*24:02, HLA-B*07:02, HLA-B*08:01 and HLA-B*44:02. As to the kind of experiment: HLA alleles the peptides bind to (Table 7). The test is classed as binding, human. To be noted: allotype from the group HLA-A*01:01, HLA-A*02:01, HLA-A*03:01, HLA-A*24:02, HLA-B*07:02, HLA-B*08:01, HLA-B*44:02. From the text:
However, due to similarities in binding pattern such as the relevant anchoring positions some peptides bind to more than one allele, such an overlap is most likely, but not limited to, HLA-A*01 binding peptides also binding to HLA-B*15, HLA-A*03 binding peptides also binding to HLA-A*11, HLA-B*07 binding peptides also binding to HLA-B*35 and HLA-B*51.

A further test concerns the target HLA-A*03:01 (Homo sapiens, UniProt P04439). The experiment in a line: MHC binding assay, UV-ligand exchange ELISA. To be noted: peptide exchange yield, binding to HLA-A*03:01.
Excerpt: as §1, §2

“15 (SPVETRSLL; listed as Homo sapiens) [compound 15]”: in the test with HLA-B*07:0, the Peptide exchange result was “+++ (≥50% = +++)”.
The same measure, in the same setting: to “41 (APQPRSLAA; listed as Homo sapiens) [compound 41]” belongs “++++ (≥75% = ++++)”; to “52 (SPLPHLGPL; listed as Homo sapiens) [compound 52]”, “+++ (≥50% = +++)”.
Still for that read-out and setting: to “55 (SPVSASWIL; listed as Homo sapiens) [compound 55]” belongs “++++ (≥75% = ++++)”; to “59 (AVDLGVLEL; listed as Homo sapiens) [compound 59]”, “+++ (≥50% = +++)”.
Still for that read-out and setting: the result for “63 (MPANFETIGF; listed as Homo sapiens) [compound 63]” reads “++++ (≥75% = ++++)”; that for “64 (LPTRSLPAF; listed as Homo sapiens) [compound 64]”, “+++ (≥50% = +++)”.
In the case of “66 (RPLILIRI; listed as Homo sapiens) [compound 66]”, in the test with HLA-B*07:0, the Peptide exchange entry is on record as “++ (≥20% = ++)”.
On to “77 (YPDVPIGQL; listed as Homo sapiens) [compound 77]”, for which the Peptide exchange result with HLA-B*07:0 was “+++ (≥50% = +++)”.
In the case of “78 (TPSHSTPSF; listed as Homo sapiens) [compound 78]”, the Peptide exchange entry with HLA-B*07:0 is listed as “+++ (≥50% = +++)”.
Same read-out and setting: the result for “85 (LPHPVNSGL; listed as Homo sapiens) [compound 85]” reads “+++ (≥50% = +++)”; that for “89 (SPSSPLLLLA; listed as Homo sapiens) [compound 89]”, “+++ (≥50% = +++)”.
With “93 (SPIGLSLIL; listed as Homo sapiens) [compound 93]”, in the test with HLA-B*07:0, the Peptide exchange result was “++++ (≥75% = ++++)”.
Same read-out and setting: the result for “96 (HPRESLNMLVAF; listed as Homo sapiens) [compound 96]” reads “++++ (≥75% = ++++)”; that for “100 (SPAPSLARFLSL; listed as Homo sapiens) [compound 100]”, “++++ (≥75% = ++++)”; that for “103 (RPWLSSPTGL; listed as Homo sapiens) [compound 103]”, “++++ (≥75% = ++++)”.
On to “109 (MPKLFLTAC; listed as Homo sapiens) [compound 109]”, for which the Peptide exchange result with HLA-B*07:0 is “++++ (≥75% = ++++)”.
As to “110 (APSLARFLSL; listed as Homo sapiens) [compound 110]”, the Peptide exchange result with HLA-B*07:0 is “++++ (≥75% = ++++)”.
The same measure, in the same setting: the result for “111 (RPIWDVRSA; listed as Homo sapiens) [compound 111]” reads “++++ (≥75% = ++++)”.
Regarding “114 (VPHHLLSSV; listed as Homo sapiens) [compound 114]”, the Peptide exchange entry in the test with HLA-B*07:0 is “++++ (≥75% = ++++)”.
For the substance “120 (APGPRSQGL; listed as Homo sapiens) [compound 120]”, the Peptide exchange result in the test with HLA-B*07:0 is recorded as “+++ (≥50% = +++)”.
On to “124 (SPSSNSREL; listed as Homo sapiens) [compound 124]”, for which, in the test with HLA-B*07:0, the Peptide exchange entry is “+++ (≥50% = +++)”.
“126 (NPELLVILL; listed as Homo sapiens) [compound 126]”: the Peptide exchange result with HLA-B*07:0 is listed as “+++ (≥50% = +++)”.
For the substance “143 (AVLGALLRH; listed as Homo sapiens) [compound 143]”, the “Binders (HLA alleles the peptides according to the invention bind to)” value (“Binders” below) in test [1] is listed as “HLA-A*03:01”. Also, the Peptide exchange result in the test with HLA-A*03:01 was “++++ (≥75% = ++++)”.
On to “144 (IIVPSFYK; listed as Homo sapiens) [compound 144]”, for which, in test [1], the “Binders” value is on record as “HLA-A*03:01”. Further, the Peptide exchange entry with HLA-A*03:01 is on record as “+++ (≥50% = +++)”.
On the same counts, the results for “146 (KVLVDFLLK; listed as Homo sapiens) [compound 146]” are “HLA-A*03:01” and “+++ (≥50% = +++)”.
On to “148 (SVYMATTLK; listed as Homo sapiens) [compound 148]”, for which the “Binders” value in test [1] is listed as “HLA-A*03:01”. Moreover, the Peptide exchange result with HLA-A*03:01 is “++++ (≥75% = ++++)”.
Regarding “149 (SMNSKALRWK; listed as Homo sapiens) [compound 149]”, the “Binders” value in test [1] is “HLA-A*03:01”. Besides, the Peptide exchange entry with HLA-A*03:01 is recorded as “+++ (≥50% = +++)”.
Consider “150 (IVFLLQQGEK; listed as Homo sapiens) [compound 150]”, for which, in test [1], the “Binders” value is reported as “HLA-A*03:01”. Moreover, the Peptide exchange entry in the test with HLA-A*03:01 is “+++ (≥50% = +++)”.
On the same counts, the results for “151 (AVFVNWEQTKK; listed as Homo sapiens) [compound 151]” are “HLA-A*03:01” and “++++ (≥75% = ++++)”.
“152 (KIMEILNLK; listed as Homo sapiens) [compound 152]”: the “Binders” value in test [1] was “HLA-A*03:01”. Further, in the test with HLA-A*03:01, the Peptide exchange entry is “++++ (≥75% = ++++)”.
On to “154 (TVTSAIVNR; listed as Homo sapiens) [compound 154]”, for which the “Binders” value in test [1] was “HLA-A*03:01”. The Peptide exchange result with HLA-A*03:01 is “+++ (≥50% = +++)”.
Turning to “159 (ASAIPAGAK; listed as Homo sapiens) [compound 159]”, the “Binders” value in test [1] is “HLA-A*03:01”. In addition, the Peptide exchange entry with HLA-A*03:01 is given as “+++ (≥50% = +++)”.
For the substance “161 (ILAASFQAR; listed as Homo sapiens) [compound 161]”, the “Binders” value in test [1] is “HLA-A*03:01”. In the test with HLA-A*03:01, the Peptide exchange result is “+++ (≥50% = +++)”.
Regarding “166 (VIFLHQPPK; listed as Homo sapiens) [compound 166]”, the “Binders” value in test [1] is “HLA-A*03:01”. Besides, the Peptide exchange result with HLA-A*03:01 is reported as “++++ (≥75% = ++++)”.
As to “174 (LSGPVTFLR; listed as Homo sapiens) [compound 174]”, the “Binders” value in test [1] is given as “HLA-A*03:01”. Besides, in the test with HLA-A*03:01, the Peptide exchange entry is recorded as “+++ (≥50% = +++)”.
For “178 (SLFGGLFTR; listed as Homo sapiens) [compound 178]”, the “Binders” value in test [1] was “HLA-A*03:01”. The Peptide exchange result in the test with HLA-A*03:01 is on record as “++++ (≥75% = ++++)”.
As for “179 (MIFSGVFLR; listed as Homo sapiens) [compound 179]”, in test [1], the “Binders” value was “HLA-A*03:01”. Besides, the Peptide exchange result with HLA-A*03:01 was “++++ (≥75% = ++++)”.
For the substance “187 (RLCPAAPTGK; listed as Homo sapiens) [compound 187]”, the “Binders” value in test [1] was “HLA-A*03:01”. Further, the Peptide exchange entry with HLA-A*03:01 was “++++ (≥75% = ++++)”.
The matching figures for “190 (STQSSLLYLK; listed as Homo sapiens) [compound 190]”: “HLA-A*03:01” and “+++ (≥50% = +++)”.
“193 (ILQLITVNR; listed as Homo sapiens) [compound 193]”: the “Binders” value in test [1] is “HLA-A*03:01”. For the same substance, the Peptide exchange entry with HLA-A*03:01 was “+++ (≥50% = +++)”.
Consider “198 (MTYQQPFSNR; listed as Homo sapiens) [compound 198]”, for which the “Binders” value in test [1] is given as “HLA-A*03:01”. Further, in the test with HLA-A*03:01, the Peptide exchange result is “++++ (≥75% = ++++)”.
Turning to “202 (KLLLLSSVK; listed as Homo sapiens) [compound 202]”, the “Binders” value in test [1] is given as “HLA-A*03:01”. For the same substance, the Peptide exchange result in the test with HLA-A*03:01 is “+++ (≥50% = +++)”.
On the same counts, the results for “203 (AILVPQPPK; listed as Homo sapiens) [compound 203]” are “HLA-A*03:01” and “+++ (≥50% = +++)”.
On the same counts, the results for “204 (VVRASSGLK; listed as Homo sapiens) [compound 204]” are “HLA-A*03:01” and “+++ (≥50% = +++)”.
In the case of “205 (SLIPIVPFKS; listed as Homo sapiens) [compound 205]”, the “Binders” value in test [1] was “HLA-A*03:01”. In addition, the Peptide exchange result in the test with HLA-A*03:01 is given as “++ (≥20% = ++)”.
The matching figures for “209 (AILLPQLPK; listed as Homo sapiens) [compound 209]”: “HLA-A*03:01” and “++++ (≥75% = ++++)”.
Regarding “213 (TLLSFKTVLFK; listed as Homo sapiens) [compound 213]”, the “Binders” value in test [1] is on record as “HLA-A*03:01”. In the test with HLA-A*03:01, the Peptide exchange result was “++++ (≥75% = ++++)”.

The record behind these values is patent US11957716B2 (Immatics Biotechnologies GmbH, priority 2021, dated 2024).
